According to patent publication US20250034277A1 (SUZHOU ALPHAMAB, published 2025):

Tests used:
[1] = target: FXI in cynomolgus plasma (cynomolgus); assay: cell-based or functional assay
[2] = target: T1, FXI in standard human plasma (human, UniProt P03951 19-625); assay: cell-based or functional assay
[3] = target: FXI in rabbit plasma (rabbit); assay: cell-based or functional assay
[4] = target: FXI in rabbit plasma (rabbit); assay: cell-based or functional assay; remark: listed apart in the source
[5] = target: T1, FXI in standard human plasma; assay: cell-based or functional assay; remark: listed apart in the source
[6] = target: FXI in rat plasma (rat); assay: cell-based or functional assay
[7] = target: FXI in monkey plasma (monkey); assay: cell-based or functional assay
[8] = target: T2, hFXI-CHis protein (human, UniProt P03951 19-625); assay: BLI, antibody on Protein A biosensor, hFXI-Chis 50-3.125 nM, 1:1 model
T2 construct: FXI is said in the background to be a dimer; nothing is said of the construct; also called human FXI; human FXI factor protein; not shown: C-terminal His tag (CHis)

B1: reference antibody 14E11 (antibody, human IgG1, kappa, V domains shown)
VH: QVQLEESGPGLVAPSQSLSITCTVSGFSLTGYGIYWVRQPPGKGLEWLGMIWGDGRTDYNSALKSRLSISKDNSKSQVFLKMNSLQTDDTARYYCARDYYGSKDYWGQGTTLTVSS
VL: DIVMTQSHKFMSTSVGDRVSITCKASQDVSTAVAWYQQKPGQSPKLLIYLTSYRNTGVPDRFTGSGSGTDFTFTISSVQAEDLAVYYCQQHYKTPYSFGGGTKLERLR
[1]
  APTT ratio in cynomolgus plasma at 0.1 µg/mL: 1 ratio
  APTT ratio in cynomolgus plasma at 0.5 µg/mL: 1.07 ratio
  APTT ratio in cynomolgus plasma at 1 µg/mL: 1.18 ratio
  APTT ratio in cynomolgus plasma at 2 µg/mL: 1.89 ratio
  APTT ratio in cynomolgus plasma at 5 µg/mL: 2.46 ratio
  APTT ratio in cynomolgus plasma at 10 µg/mL: 2.53 ratio
[2]
  whole blood APTT in standard human plasma at 0.1 µg/mL: 22.9
  whole blood APTT in standard human plasma at 0.5 µg/mL: 25.1
  whole blood APTT in standard human plasma at 1 µg/mL: 28.3
  whole blood APTT in standard human plasma at 2 µg/mL: 38.3
  whole blood APTT in standard human plasma at 5 µg/mL: 47.2
  whole blood APTT in standard human plasma at 10 µg/mL: 48.1
[3]
  whole blood APTT in rabbit plasma at 0.1 µg/mL: 15.6
  whole blood APTT in rabbit plasma at 0.5 µg/mL: 16.1
  whole blood APTT in rabbit plasma at 1 µg/mL: 17.2
  whole blood APTT in rabbit plasma at 2 µg/mL: 21.5
  whole blood APTT in rabbit plasma at 5 µg/mL: 34.5
  whole blood APTT in rabbit plasma at 10 µg/mL: 37.8
[4]
  APTT ratio in rabbit plasma at 0.1 µg/mL: 0.85 ratio
  APTT ratio in rabbit plasma at 0.5 µg/mL: 0.88 ratio
  APTT ratio in rabbit plasma at 1 µg/mL: 0.93 ratio
  APTT ratio in rabbit plasma at 2 µg/mL: 1.17 ratio
  APTT ratio in rabbit plasma at 5 µg/mL: 1.88 ratio
  APTT ratio in rabbit plasma at 10 µg/mL: 2.05 ratio
[5]
  APTT ratio in standard human plasma at 0.1 µg/mL: 1 ratio
  APTT ratio in standard human plasma at 0.5 µg/mL: 1.09 ratio
  APTT ratio in standard human plasma at 1 µg/mL: 1.23 ratio
  APTT ratio in standard human plasma at 2 µg/mL: 1.67 ratio
  APTT ratio in standard human plasma at 5 µg/mL: 2.05 ratio
  APTT ratio in standard human plasma at 10 µg/mL: 2.09 ratio
[6]
  APTT ratio in rat plasma at 0.5 µg/mL: 1.08 ratio
  APTT ratio in rat plasma at 1 µg/mL: 1.04 ratio
  APTT ratio in rat plasma at 2 µg/mL: 1.13 ratio
  APTT ratio in rat plasma at 5 µg/mL: 1.37 ratio
  APTT ratio in rat plasma at 10 µg/mL: 1.34 ratio
  APTT ratio in rat plasma at 30 µg/mL: 1.37 ratio
[7]
  whole blood APTT in monkey plasma at 0.1 µg/mL: 20.9
  whole blood APTT in monkey plasma at 0.5 µg/mL: 22.4
  whole blood APTT in monkey plasma at 1 µg/mL: 24.7
  whole blood APTT in monkey plasma at 2 µg/mL: 39.6
  whole blood APTT in monkey plasma at 5 µg/mL: 51.4
  whole blood APTT in monkey plasma at 10 µg/mL: 52.8

B2: reference antibody BAY1213790 (antibody, human IgG1, kappa, V domains shown)
VH: EVQLLESGGGLVQPGGSLRLSCAASGFTFSQYGMDWVRQAPGKGLEWVSGIGPSGGSTVYADSVKGRFTISRDNSKNTLYLQMNSLRAEDTAVYYCTRGGPYYYYGMDVWGQGTTVTVSS
VL: DIQMTQSPSSLSASVGDRVTITCQASQDISNYLNWYQQKPGKAPKLLIYDASNLETGVPSRFSGSGSGTDFTFTISSLQPEDIATYYCQQADSFPVTFGGGTKVEIKR
notes: Anti-FXI antibody developed by Bayer
[8]
  Kd: 4.12 nM
[2]
  whole blood APTT in standard human plasma at 0.1 µg/mL: 22.9
  whole blood APTT in standard human plasma at 0.5 µg/mL: 26.3
  whole blood APTT in standard human plasma at 1 µg/mL: 29.2
  whole blood APTT in standard human plasma at 2 µg/mL: 36.4
  whole blood APTT in standard human plasma at 5 µg/mL: 45.6
  whole blood APTT in standard human plasma at 10 µg/mL: 51.1
[3]
  whole blood APTT in rabbit plasma at 0.1 µg/mL: 15.3
  whole blood APTT in rabbit plasma at 0.5 µg/mL: 16
  whole blood APTT in rabbit plasma at 1 µg/mL: 16.4
  whole blood APTT in rabbit plasma at 2 µg/mL: 18.1
  whole blood APTT in rabbit plasma at 5 µg/mL: 24.1
  whole blood APTT in rabbit plasma at 10 µg/mL: 28.8
[5]
  APTT ratio in standard human plasma at 0.1 µg/mL: 1 ratio
  APTT ratio in standard human plasma at 0.5 µg/mL: 1.14 ratio
  APTT ratio in standard human plasma at 1 µg/mL: 1.27 ratio
  APTT ratio in standard human plasma at 2 µg/mL: 1.58 ratio
  APTT ratio in standard human plasma at 5 µg/mL: 1.98 ratio
  APTT ratio in standard human plasma at 10 µg/mL: 2.22 ratio
[7]
  whole blood APTT in monkey plasma at 0.1 µg/mL: 21
  whole blood APTT in monkey plasma at 0.5 µg/mL: 23.1
  whole blood APTT in monkey plasma at 1 µg/mL: 25.6
  whole blood APTT in monkey plasma at 2 µg/mL: 30.2
  whole blood APTT in monkey plasma at 5 µg/mL: 37.1
  whole blood APTT in monkey plasma at 10 µg/mL: 42.5
